Measured values: the nanobody polyreactivity screen of Harvey et al. (2022)

Experiment: yeast display, Sf9 membrane polyspecificity reagent, FACS + sequencing; frameworks hold sequencing errors
Summary of the method: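 Using colony PCR, genes from sorted yeast display clones were amplified, then sequenced on MiSeq at 2 × 250 and filtered by CDR length. The clones had been stained with 10% biotinylated, detergent-solubilized Sf9 membrane reagent for 1 hour at 4 °C and sorted by FACS into low and high (top ~1%) gates on anti-HA and streptavidin fluorescence. Polyreactivity labels come from the gate of origin.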

Row | Sequence | polyreactivity (PSR sort gate)
1 | QVQLVESGGGLVQAGGSLRLSCAASGSIFPSNAMGWYRQAPGKERELVAAISSSGGRTYYADSVKGRFTISRDNAKNTVYLQMNSLKPEDTAVYYCAAKYTVYGVGYYYWGQGTQVTVSS | high polyreactivity
2 | QVQLEESGGGLVQAGGSLRLSCAASGRIFDDNAMGWYRPAPGKERELVAAISSSGGSTYYADSVKGRFTISRDNAKNTVYLQMNSLKPEDTAVYYCNAGRYIRAFWYAHGYDYWGQGTQVTVSS | high polyreactivity
3 | QVQLQESGGVQAGGSLRLSCAASGYISRSDVMGWYRQAPVKERELVATINNGTLTYYADSVKGRFTISRDNAKNTVYLQMNSLKPEDTPVHYCAVLQSDTDSLYYWGQGSQVTVSS | low polyreactivity
4 | QVQLVESGGGLVQAGGSLRLSCAASGFIFGGNAMGWYRQAPGKERELVAAISSGGRTYYADSVKGRFTISRDNAKNTVYLQMNSLKPEDTAVYYCNAAEQKYSIYYAFDTGPYDYWGQGTQVTVSS | low polyreactivity
5 | QVQLQESGGGLVQAGGSLSLSCAASGSISAVGAMGWYRKAPGKERELAASVNWCTNTNYADSVKGRFTISRDNAKNTLYLQMNSLKPEDTAVYYCAVLPDWETRHDYWGHGTQVTVSS | low polyreactivity
6 | QVQLVESGGGLVQAGGSLRLTCAASGRTFWRYAMGWYRQAPGKERELVAAITSGGGSTYYADSVKGRFTISRDNAKNTVYLQMTSLKPEDTAVYYCNRAGRGRSFKGDYWGQGTQVTVSS | high polyreactivity
7 | QVQLVESGGGLVQAGGSLRLSCAASGSTFVRYAMGWYRPAPGKERELVAVISSSGGTTYYADSVKGRFTISRDNAKNTVYLQMNSLKPEDTAVYSCARRVRWWGPRRSDFDYWGQGTQVTVSS | high polyreactivity
8 | QVQLVESGGGLVQAGGSLRLSCAASGFIFPSNVMGWYRQATGKERELVAAISTRGGRTYYADSVKGRFTISRDNAKNTVYLQMNSLKPEDTAVYYCAASISRQGGVGYWGQGTQVTVSS | high polyreactivity
9 | QDQLVESGGGIVQAGGSLRLSCAASGSTIFYYAMGWYRQAPGKERELVAASSQRGGSTRYADSVKGRFTISRDNAKNTVYLQINSLKPEDSAVYYCAAARSPYKYSYWGQGTQVTVSS | high polyreactivity
10 | QVQLVESGRGLVQAGGSLRLSCAASGFIFHRYAMGWYRQAPGKERELFAAITRTGGRTYYADSVKGRFTISRDNAKNTVYLQMNSLKPEDTEVYYCAAVRTLSYEYWGQGTKVTVSS | high polyreactivity
11 | QVQLVESGGGLVQAGGSLRLSCAASGSTFLSNAMGWYRQAPGKERELVASINWIGGSTRYADSVKGRFTISRDNAKNTVYLQMNSLKPEDTAVYYCAVELWWKWPFYYWGQGTQVTVSS | high polyreactivity
12 | QVQLVESGGGLLQAGGSLRLSCAASGFIFRGYNMGWYRQAPGKERELVAAITTTSSTYYADSVKGRFTISRDNAKNTVYLQMNSLKPEDTAVYYCAALFYRYGYLYNYWGQGTQVTVSS | high polyreactivity
13 | QVQLVESGGGLVQAGGSLRLSCAASGSIFSFYAMVWYRQAPGKERELVADISLTTDSTYADSVKGRFTISRDNAKNTVYLQMNSLKPEDTAVYYCAADFFGTITWYDYWGQGTQVTVSS | low polyreactivity
14 | QVQLVESGGGLVQAGGSLRLSCAASGLIFYRYVMGWYRQAPGKEREFVAAISSGGSTYYADSVKGLFTISRDNAKNTVYLQMNSLKPEDTAVYYCNTLSQVFASRAPKFDYWGQGTQVTVSS | high polyreactivity
15 | QVQLEESGGGLFQAGGSLRLICAASGRICDVNAMGWYRQAPGKERELVAAISWSGGITYYADSVKGRFTISRDNAKNTVYLQMNSLKPEDTAVYYCAADKYQGYTFYQGYPGGGGYWGQGTQVTVSS | low polyreactivity
16 | QVQLVESGGGLVQAGGSLRLSCAASGGIFAWNAMGWYRQAPGKERELVAAISGRGGSTTYADSVKGRFTISRDNAKNTVYLQMNSLKPEDTAVYYCAKRWYSGWYKYDYWGQGTQVTVSS | high polyreactivity
17 | QVQLVESGGGLVQAGGSLRLSCAASGFIFYYYAMGWYRQAPGKERELVAAINRRGGSTYYADSVKGRFTISRDNAKNTVYLQMNSLKPEDTAVYYCAATYDGTFDYWGQGTQVTVSS | high polyreactivity
18 | QVQLVESGGGLVQAGGSLRLSCAASGFTFKTYVMGWYRQAPGKERELVAAISRRGGSTHYADSVKGRFTISRDNAKNTVYLQMNSLKPEVTAVYYCAARHPFAGTVWGVVSYDYWGQGTLVTVSS | high polyreactivity
19 | QVQLVESGGGLVQAGGSLRLSCAASGLTFRYYAMGWYRQAPGKERELVAAISWSGGSTYYADSVKGRFTISRDNAKNTVYLQMNSLKPEDTAVYFCNAELYPQWYDSGQTMEYWGQGTQVTVSS | high polyreactivity
20 | QVQLVESGGGLVQAGGSLRLTCAASGRIFYPYPMGWYRQAPGKERELVAAIDKGGGSTYYADSVKGRFSISRDNAKNTVYLQMNSLKPEDTAVFYCAAGWEYPYDYWGQGTQVTVSS | low polyreactivity
21 | QVQLVESGGGLVQAGGSLRLSSAASGSTFLYYAMGWYRQAPGKERELVATITDGGSTNYADSVKGRFTISRDNAKNTVYLQMNSLKPEDTAVYYCATDSYHYSYGYSSLPEYDYWGQGTQVTVSS | low polyreactivity
22 | QVQLVESGGGLVQAGGSLRLSCAASGSIFYKNAMGWYRQAPGKERELVAAITYSGGSTYYADSVKGRFTISRDNAKNTVYLQMNSLKPEDTAVYYCAADIGVYGERREEEYDYWGQGTQVTVSS | low polyreactivity

Row | Sequence | polyreactivity (PSR sort gate)
23 | QVQRVESGGGLVQAGCSLRLSCAATGSTFRDYTMGGYRQEPGKERELVADITWRSGRTYYADSVMGRFTISRDYAMNTVYLQMNSLKPEDTAVYYCAAATRVKVNGLYSYYYRYDYWGLGTQVTVSS | high polyreactivity
24 | QVQLVESGGGLVQAGGSLRLICAASGFIFDAYAMGWYRQAPGKERELVAAISRTGGSTYYADSVKGRFTISRDNAKNTVYLQMNSLKPEDTAVYYCTAYKSHDDYYWGQGTQITVSS | high polyreactivity
25 | QVQLVESGGGLVQAGGSLRLSCAASGRTFTKYAMGWDRQAPGKERELVAVISVIGGTNYADSVKWRFTISRDNAKNTVYLQMNSLKPEDTAVYYCAAVSREHDYWGQGTQVTVSS | high polyreactivity
26 | QVQLVESGGGLVQAGGSLRLSCAASGGIFSYYAMGWYRQAPGKERELVAAITGSGATTYYADSVKGRFTISRDNAKNTVYLQMNSLKPEDTAVYYCAADYWTAFYTLDSWGQGTQVTVSS | low polyreactivity
27 | QVQLVESGGGLVQAGGRLRLSSAASGRIFHSYAMGWYRQAPGKDRELVAGITSRGGTYYADSVKGRFTISRDNAKNTVYLQMNSLKPEDTAVYYCNADQALYSSGNKYDYWGQGTQVTVSS | low polyreactivity
28 | QVQLVESGGGLVQAGGSLRLSCAASGRTFYDYAMGWYRQAPGKEREFVARITYSGGGTYYADSVKGRFTISRDNAKNTVYLQMNSLKPEDTAVYYCARPFIRYLGLTRNGYTSDYWGQGTQVTVSS | high polyreactivity
29 | QVQLVESGGGLVQAGGSLRLSCAASGIIFKRYAMGWYRQAPGKERELVATITRDGRTSYADSVKGRFTISRDNAKNTVYLQMNSLKPEDTAVYYCNKRGTYAPPTPGNLFDYWGQGTQVTVSS | low polyreactivity
30 | QVQLVESGGGLVQPGGSLRLSCAASGFTFIRNVMGWYRQAPGKERELVARITYSSGSTYYADSVKGRFTISRDNAKNTVYLQMNSLKPEDTAVYYCAVRLYSYLYNPFNYWGQGTQVTVSS | high polyreactivity
31 | QVQLVESGGGLVQAGGSLRLSCAASGLTFYFNAMVWYRQAPVKERQLVAAIDWGGGSTYYADSVKGRFTISRDNAKNTVYLQMNSLNPEDTAVYYCGARGYYYNYDVNYWVQGTQVTVSS | low polyreactivity
32 | QVQLVESGGGLVQAGGSLRLSCAASGRIFVGYAMGWYRPAPGKERELVAAINRSGSCTYYADSVKVRFTISRDNAKITGYLQMNSLKPEDTAVYYCNARSGNRYGPRYDDWGQGTQVTVSS | high polyreactivity
33 | QVKLVESGGGLVQAGGSLRLTCAASGITFFIYAMGWYRQAPGKERELFYAIRSGGSTNYADSVKGRFTISRDNAKNTVYLQMNSLKPEDTAVYYCAADVYGTVRRVGWYYVGEGYDYWGQGTQLTVSS | low polyreactivity
34 | QFQLVESGGGLVQAGGSLRLSCAASGRISYAYAMGWYRQAPGKEREFVAAISGSGGSTYYADSVKGRFTISRDNAKKTVYLQMNSLKPEDTAVYYCDAGSGEYYGGKRYYWGQGTQVTVSS | low polyreactivity
35 | QVQLEESGGGLVQAGGSLRLSCAASGRIFTYYGMGWYRQAPGKERELVAAITRSGGSTRYADSVKGRFTISRDNAKNTVYLQMNSLKPEDTAVYFCAKTHYGVQRLDSCGQGTQVTVSS | low polyreactivity
36 | QVQLVESGGGLVQAGGSLRLSCAASGSIFYPYAMGWYRQAPGKEREFVAAITRSGGSTSYADSVKGRFTISRDNAKNTVYLHMNSLKPEDTAVYYCAAGYWYPDYDGFDYWGQGTQVTVSS | low polyreactivity
37 | QVQLVESGGGLVQAGGSLRLSCAASGSIFGRYAMGWYRQAPGKERELVAAISSSGGRTYYADSVNGRFTISRDNAKNTVYLQMNSLKPEDTAVYYCNAGTPYRGDYWGQGTQVTVSS | high polyreactivity
38 | QVQLVESAGGLVQAGGSLRLSCAASGIIFTYYAMGWYRQAPGKERELVAAISSSSGSTYYADSVKGRFTISRDNAKNTVYLQMNSLKPEDTAVYYCAAAFSQYSTSYYYWGQGTQVTVSS | high polyreactivity
39 | QVQLVESGGGLVQAGGSLRLSCAASGRIIIRYAMGWYRQAPGKERELVAGISRRGGSTSYADSVKWRFTISRDNAKNTVYLQMNSLKPEDTAVYYCGADSQYKYDYWGQGTQVTVSS | high polyreactivity
40 | QVQLVESGGGLVQAGGSLRLSCAASGRIFKWNAMGWYRQAPGKERELVAAISLSGGSTYYADSVKGRFTISRDKAKNTVYLQMNSLKPEDTAVYYCNAYAYHRYGYWGQGTQVTVSS | high polyreactivity
41 | QVQLVESGGGLVQAGGSLRVSCAASGRTFYFNAMGWYRQAPGKERELVAVISWSGGRTYYADSVKGRFTISRDNAKNTVYLLMNSLKPEDTAVYYCAADYQSGGSRYDYWGQGTQVTVSS | high polyreactivity
42 | QVQLVESGGGLVQAGGSLRLSCAASGGTFGTNTMGWYRQAPGKERELVAAISKRGGRTYYADSVKGRFTISRDNAKNTVYLQMNSLKPEDTAVYYCAADTGGNPKYDYWGQGTQVTVSS | high polyreactivity
43 | QVQLVESGGGLVQAGGSLRLSCAASGFTLDYYAMGWYRKAPGKERELVAAISFSGGSTYYADSVKGRFTISRDNAKNTVYLQMNSLKPEDTAVYFCAADPQIVWYDYWGQGTQVTVSS | low polyreactivity
